This is an account of results in publication PMC7352350, “Molecular Interactions Stabilizing the Promatrix Metalloprotease-9·Serglycin Heteromer” (International Journal of Molecular Sciences, 2020).

Settings in all cases: both partners purified
The target of assay [1] is T1, recombinant human His-tagged serglycin (human, UniProt P10124 28-158).
T1 construct: serglycin core protein, human, the tag stands instead of the signal peptide; no GAG chains; numbers count on: the mature protein (1-131); also called Ht-SG; SG core protein; source: bought: ProSpec (produced in Escherichia coli)
T1 sequence (looked up): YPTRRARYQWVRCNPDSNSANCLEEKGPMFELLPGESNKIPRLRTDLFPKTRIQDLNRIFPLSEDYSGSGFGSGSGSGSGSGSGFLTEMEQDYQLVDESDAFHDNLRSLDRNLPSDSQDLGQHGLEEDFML
Briefly: peptide or protein array; 20-mer walks of the MMP-9 FnII module and HPX domain on cellulose, two-residue shift; 10 uL of 1 ng/uL Ht-SG in 10 mL blocking buffer, 1-4 h, room temperature; antibodies against SG.

The target in assay [2] is T2, proMMP-9 purified from THP-1 cells (human (endogenous in THP-1), UniProt P14780 20-707).
T2 construct: matrix metalloprotease-9 proenzyme, human; pre domain cleaved off, the mature proenzyme is 20-707; the preparation holds a small amount of TIMP-1; monomer and reduction-sensitive homomultimer; also called pMMP-9; promatrix metalloprotease-9; source: purified from conditioned medium of PMA-stimulated THP-1 cells (Q-Sepharose pass-through, gelatin-Sepharose)
As to the kind of experiment: peptide or protein array; 20-mer walk of the SG core protein on cellulose, two-residue shift; 8.8 ul of 11.2 ug/mL proMMP-9 in 10 mL blocking buffer, 1-4 h, room temperature; antibody against MMP-9.
Target sequence in this assay (P14780 20-707): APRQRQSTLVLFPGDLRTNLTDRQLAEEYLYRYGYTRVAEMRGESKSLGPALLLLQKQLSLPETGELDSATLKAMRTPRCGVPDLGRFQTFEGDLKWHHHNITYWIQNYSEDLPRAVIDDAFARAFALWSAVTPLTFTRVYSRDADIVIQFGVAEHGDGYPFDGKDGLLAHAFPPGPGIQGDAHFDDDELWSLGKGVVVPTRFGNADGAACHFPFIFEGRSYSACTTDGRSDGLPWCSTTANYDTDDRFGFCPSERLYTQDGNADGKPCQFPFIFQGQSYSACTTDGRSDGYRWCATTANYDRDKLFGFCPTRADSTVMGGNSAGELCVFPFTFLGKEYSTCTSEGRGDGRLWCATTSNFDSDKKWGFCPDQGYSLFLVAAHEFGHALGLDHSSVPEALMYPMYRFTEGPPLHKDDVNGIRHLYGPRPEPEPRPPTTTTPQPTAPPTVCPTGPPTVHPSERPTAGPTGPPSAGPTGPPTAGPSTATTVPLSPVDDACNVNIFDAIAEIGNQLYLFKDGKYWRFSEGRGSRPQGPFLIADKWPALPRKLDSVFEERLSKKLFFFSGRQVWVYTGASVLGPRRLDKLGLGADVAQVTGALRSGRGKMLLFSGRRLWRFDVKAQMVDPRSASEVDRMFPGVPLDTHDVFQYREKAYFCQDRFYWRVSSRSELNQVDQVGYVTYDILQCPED

Assay [3] has as its target T3, recombinant full-length proMMP-9 (human, UniProt P14780 20-707).
T3 construct: matrix metalloprotease-9 proenzyme, human, full-length; pre domain cleaved off, the mature proenzyme is 20-707; also called rpMMP-9; source: Sf9, baculovirus, purified (gelatin-Sepharose)
The assay is described as above.

For assay [4], the target named is T4, recombinant proMMP-9 lacking the HPX domain (human, UniProt P14780 20-515).
T4 construct: MMP-9 proenzyme, human; stop codon behind the codon for A515; the mature proenzyme starts at 20; also called rpMMP-9ΔHPX; proMMP-9ΔHPX; source: Sf9, baculovirus, purified (gelatin-Sepharose)
The assay is described as above.

In assay [5] the target is T2, proMMP-9 purified from THP-1 cells. Described as above. This is another data set of the same source.

T4 sequence (P14780 20-515): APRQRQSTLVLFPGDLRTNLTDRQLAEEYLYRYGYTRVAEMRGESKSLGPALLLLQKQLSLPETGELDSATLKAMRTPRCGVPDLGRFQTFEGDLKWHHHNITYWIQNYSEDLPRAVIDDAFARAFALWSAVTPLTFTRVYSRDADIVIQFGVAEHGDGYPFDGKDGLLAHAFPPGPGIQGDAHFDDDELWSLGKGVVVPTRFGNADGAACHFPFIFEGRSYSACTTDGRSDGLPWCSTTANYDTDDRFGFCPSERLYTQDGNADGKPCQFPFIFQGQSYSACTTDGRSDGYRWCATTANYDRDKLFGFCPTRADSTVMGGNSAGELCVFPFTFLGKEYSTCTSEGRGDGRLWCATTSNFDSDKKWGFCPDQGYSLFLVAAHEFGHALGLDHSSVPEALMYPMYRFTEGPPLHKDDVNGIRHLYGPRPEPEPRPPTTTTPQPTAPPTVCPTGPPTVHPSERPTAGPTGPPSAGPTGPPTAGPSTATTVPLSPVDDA

B1: HPX peptide 12 (peptide, UniProt P14780 543-562, looked up)
peptide: SEGRGSRPQGPFLIADKWPA
notes: MMP-9 HPX domain (F521-D707), spot 12 of the 20-mer walk with two-residue shift; source: synthetic peptide on a cellulose membrane
As to B1, in assay [1], the binding result is listed as “binds”.

B2: HPX peptide 84 (peptide, UniProt P14780 687-706, looked up)
peptide: ELNQVDQVGYVTYDILQCPE
notes: MMP-9 HPX domain (F521-D707), spot 84 of the 20-mer walk with two-residue shift; source: synthetic peptide on a cellulose membrane
As for B2, the binding result in assay [1] was “binds”.

B3: SG peptide 14 (peptide, UniProt P10124 54-73, looked up)
peptide: GPMFELLPGESNKIPRLRTD
notes: serglycin core protein, spot 14 of the 20-mer walk with two-residue shift; numbers count on: the mature protein (1-131); source: synthetic peptide on a cellulose membrane
B3: the binding result in assay [2], in assay [3] and in assay [4] was “binds” each time.

B4: HPX peptide 38 (peptide, UniProt P14780 595-614, looked up)
peptide: VLGPRRLDKLGLGADVAQVT
notes: MMP-9 HPX domain (F521-D707), spot 38 of the 20-mer walk with two-residue shift; source: synthetic peptide on a cellulose membrane
Take B4: the binding result in assay [1] is listed as “binds”.

B5: FnII peptide 20 (peptide, UniProt P14780 263-282, looked up)
peptide: DTDDRFGFCPSERLYTQDGN
notes: MMP-9 FnII module (A225-D390), spot 20 of the 20-mer walk with two-residue shift; source: synthetic peptide on a cellulose membrane
B5: the binding result in assay [1] is “binds”.

B6: SG peptide 47 (peptide, UniProt P10124 120-139, looked up)
peptide: YQLVDESDAFHDNLRSLDRN
notes: serglycin core protein, spot 47 of the 20-mer walk with two-residue shift; numbers count on: the mature protein (1-131); source: synthetic peptide on a cellulose membrane
B6: the binding result in assay [2], in assay [3] and in assay [4] was “binds” in each case.

B7: SG peptide 6 (peptide, UniProt P10124 38-57, looked up)
peptide: VRCNPDSNSANCLEEKGPMF
notes: serglycin core protein, spot 6 of the 20-mer walk with two-residue shift; numbers count on: the mature protein (1-131); source: synthetic peptide on a cellulose membrane
On to B7, for which the binding result in assay [2], in assay [3] and in assay [4] was “binds” throughout.

B8: SG peptide 23 (peptide, UniProt P10124 72-91, looked up)
peptide: TDLFPKTRIQDLNRIFPLSE
notes: serglycin core protein, spot 23 of the 20-mer walk with two-residue shift; numbers count on: the mature protein (1-131); source: synthetic peptide on a cellulose membrane
Consider B8, for which the binding result in assay [2], in assay [3] and in assay [4] was “binds” throughout.

B9: SG peptide 15 (peptide, UniProt P10124 56-75, looked up)
peptide: MFELLPGESNKIPRLRTDLF
notes: serglycin core protein, spot 15 of the 20-mer walk with two-residue shift; numbers count on: the mature protein (1-131); source: synthetic peptide on a cellulose membrane
Regarding B9, the binding result in assay [2], in assay [3] and in assay [4] was “binds” each time.

B10: FnII peptide 18 (peptide, UniProt P14780 259-278, looked up)
peptide: TANYDTDDRFGFCPSERLYT
notes: MMP-9 FnII module (A225-D390), spot 18 of the 20-mer walk with two-residue shift; source: synthetic peptide on a cellulose membrane
B10: in assay [1], the binding result was “binds”.

B11: HPX peptide 19 (peptide, UniProt P14780 557-576, looked up)
peptide: ADKWPALPRKLDSVFEERLS
notes: MMP-9 HPX domain (F521-D707), spot 19 of the 20-mer walk with two-residue shift; source: synthetic peptide on a cellulose membrane
For the molecule B11, the binding result in assay [1] was “binds”.

B12: FnII peptide 16 (peptide, UniProt P14780 255-274, looked up)
peptide: WCSTTANYDTDDRFGFCPSE
notes: MMP-9 FnII module (A225-D390), spot 16 of the 20-mer walk with two-residue shift; source: synthetic peptide on a cellulose membrane
Regarding B12, in assay [1], the binding result is given as “binds”.

B13: HPX peptide 56 (peptide, UniProt P14780 631-650, looked up)
peptide: RLWRFDVKAQMVDPRSASEV
notes: MMP-9 HPX domain (F521-D707), spot 56 of the 20-mer walk with two-residue shift; source: synthetic peptide on a cellulose membrane
For B13, in assay [1], the binding result is “binds”.

B14: FnII peptide 19 (peptide, UniProt P14780 261-280, looked up)
peptide: NYDTDDRFGFCPSERLYTQD
notes: MMP-9 FnII module (A225-D390), spot 19 of the 20-mer walk with two-residue shift; source: synthetic peptide on a cellulose membrane
Turning to B14, the binding result in assay [1] is on record as “binds”.

B15: SG peptide 50 (peptide, UniProt P10124 126-145, looked up)
peptide: SDAFHDNLRSLDRNLPSDSQ
notes: serglycin core protein, spot 50 of the 20-mer walk with two-residue shift; numbers count on: the mature protein (1-131); source: synthetic peptide on a cellulose membrane
B15: in assay [5], the binding result was “binds”.

B16: HPX peptide 69 (peptide, UniProt P14780 657-676, looked up)
peptide: VPLDTHDVFQYREKAYFCQD
notes: MMP-9 HPX domain (F521-D707), spot 69 of the 20-mer walk with two-residue shift; source: synthetic peptide on a cellulose membrane
Regarding B16, the binding result in assay [1] was “binds”.

B17: SG peptide 24 (peptide, UniProt P10124 74-93, looked up)
peptide: LFPKTRIQDLNRIFPLSEDY
notes: serglycin core protein, spot 24 of the 20-mer walk with two-residue shift; numbers count on: the mature protein (1-131); source: synthetic peptide on a cellulose membrane
For the molecule B17, the binding result in assay [2], in assay [3] and in assay [4] was “binds” each time.

B18: FnII peptide 21 (peptide, UniProt P14780 265-284, looked up)
peptide: DDRFGFCPSERLYTQDGNAD
notes: MMP-9 FnII module (A225-D390), spot 21 of the 20-mer walk with two-residue shift; source: synthetic peptide on a cellulose membrane
On to B18, for which, in assay [1], the binding result is on record as “binds”.

B19: HPX peptide 10 (peptide, UniProt P14780 539-558, looked up)
peptide: YWRFSEGRGSRPQGPFLIAD
notes: MMP-9 HPX domain (F521-D707), spot 10 of the 20-mer walk with two-residue shift; source: synthetic peptide on a cellulose membrane
Consider B19, for which, in assay [1], the binding result is “binds”.

B20: FnII peptide 64 (peptide, UniProt P14780 351-370, looked up)
peptide: FTFLGKEYSTCTSEGRGDGR
notes: MMP-9 FnII module (A225-D390), spot 64 of the 20-mer walk with two-residue shift; source: synthetic peptide on a cellulose membrane
For B20, the binding result in assay [1] is “binds”.

B21: FnII peptide 22 (peptide, UniProt P14780 267-286, looked up)
peptide: RFGFCPSERLYTQDGNADGK
notes: MMP-9 FnII module (A225-D390), spot 22 of the 20-mer walk with two-residue shift; source: synthetic peptide on a cellulose membrane
For the molecule B21, in assay [1], the binding result is reported as “binds”.
